Reference: the Human Domainome abundance scans (Beltran et al. 2025)

B1: Spectrin alpha chain, erythrocytic 1, residues 979 to 1036; numbered along this chain, P02549 (parent)
chain: EQRVMALYDFQARSPREVTMKKGDVLTLLSSINKDWWKVEAADHQGIVPAVYVRRLAH

Variants of: B1
Experiment: abundance fitness (aPCA) (normalised: wild type 0, dead -1); higher = more abundant; growth selection in yeast, the domain comes from the species named
Conditions: Homo sapiens

Abundance fitness: each site, then its substitutions
V39: K -0.742, G -0.705, P -0.319, S -0.886, F -0.658, R -0.852, W -0.564, E -0.332
G46: S -1.04, R -0.58, K -0.459, E -0.023, L -0.227, C -0.361
Q45: E 0.039, W -0.889, I 0.027, R -0.037, K 0.09, V 0.1, S -0.004, C -0.103, D -0.498, A -0.171, L -0.713, G -0.754, T 0.516, P -0.565
E17: L -0.802, W -0.8, A -0.64, D -0.738, S -0.92, H -0.63, K -0.403, V -0.9, F -0.594, N -0.693, Y -0.012, C -0.911, Q -0.239, R -0.778, T -0.729, G -0.801
I32: W 1.06
S30: C -0.337, L -1.18, E -0.066, D -0.013, V -0.964, T -0.632, G -0.041, M -0.463, A -0.657, K -0.322, Y -0.108
N33: R -0.739, L -0.694, E -0.064, S -0.35, G -0.447, W -0.822, C -0.929, V -0.833, A -0.751, Q -0.494, D 0.224
K21: I -0.779, A -0.561, W -0.534, R -0.105, H -0.304, P -0.578, F -0.643, V -0.781, G -0.652, L -0.731
D35: V -0.037, A -0.541, R -0.326, N -0.182, L -0.685, Q -0.697, S -0.006, E -0.364, K -0.027, M -0.535, P -0.867, T -0.506
V18: C -0.266, R -0.817, F -0.339, Q -0.656, M -0.33, K -0.418, P -0.71, E -0.784, L 0.138, W -1.03, G -0.587, A -0.376
M20: K -0.574, V -0.22, G -0.829, N -0.209, C -0.726, L -0.276, E -0.726, I -0.554, R -0.963, A -0.791, F -0.681, Y -0.867, P -0.831, W -0.622, T -0.877, Q -0.236
P15: V -0.561, L -0.705, D 0.163, A -0.252, C -0.411, G -0.46, R -0.529, T -0.293, E -0.077, S -0.178, Y 0.325, K 0.089
S14: R -0.364, V -0.677, Q -0.769, T -0.069
T19: R -0.744, A -0.371, S 0.249, E -0.73, W -0.932, V -0.822, N -0.122, Q -0.476, P -0.613, L -0.369
K38: Q 0.041, C 0.284, P -0.701, M 0.083, G -0.832, R -0.033, E 0.281, T 0.373, W -0.168, I 0.097, Y -0.311, H -0.016, F 0.208, V 0.303, A -0.258, S -0.301
K34: Q -0.229, A -0.292, R -0.168, M -0.514, G -0.415, P -0.015, L 0.207, H 0.231, T 0.023, V -0.741
R16: S 0.579, A 0.254
K22: R -0.238, A -0.664, C -0.586, W -0.725, H -0.341, Q 0.303, E -0.819
D43: S 0.096, Q 0.413, P -0.552, T -0.223, L -0.876, H 0.129, A -0.314, I -0.387, G 0.567, V -0.537, W -0.622, N -0.105, R -0.708
A41: E -0.851, N -0.024, K 0.033, L -0.208, G 0.154, Y -0.448, C 0.001, R 0.049, S 0.232, I -0.482, Q -0.287, T 0.043, V -0.633
E40: G -0.217, K 0.29, S -0.187, L -0.652, M -0.125, P -0.744, V -0.573, D -0.388, Q 0.188, A 0.243, R 0.217, T -0.222
S31: K -0.179, W -0.814, N -0.224, C -0.157, G -0.34, L -0.38, I 0.495, Y -0.252, V 0.437, D 0.673, M -0.04, Q 0.225, R -0.282, E 0.518, F -0.47, A 0.092
L26: R -0.819, Y -0.173, Q -0.429, C -0.046, K -0.324, G -0.65, E -0.5, F -0.237, I -0.691, A -0.493, V -0.767, M -0.34
V25: L -1.01, I -0.099, H -0.432, M -0.425, K -0.226, T -0.7, E 0.059, C -0.146, A -0.163, S -0.887, R -0.469
H44: T -0.107, S 0.03, C -0.016, W -0.483, L -0.692, V -0.156, K 0.555, P -0.95, Q 0.119, M -0.039, Y -0.804, A -0.051, G 0.292
W37: D -0.644, A -0.848, L 0.323, M -0.12, R -0.267, V 0.367, C -0.386, G -0.596, I 0.405
A42: E -0.089, H -0.031, S -0.133, L 0.178, T -0.503, P -0.223, F -0.002, Q -0.021, C -0.197, R -0.243, N 0.315, G 0.455
L28: I 0.024, K -0.676, G -0.756, C 0.354, R -0.938, S -0.726, W -0.536, A -0.762, T -0.47
D24: R -0.689, Y -0.805, L -0.986, S -0.256, V -0.421, T 0.006, M -0.527, Q 0.579, G -0.883
T27: C -0.627, N -0.246, V -0.396, Q -0.228, I -0.521, L -0.752, K 0.229, S -0.808, A -0.975, P -0.382
W36: E 0.664, D -0.582, R -0.894, V -0.554, K -0.675, G -0.778
L29: S -0.134, W -0.111, V 0.016, K 0.119, P 0.075, I -0.266, T -0.27, R -0.768, E -0.934, G -0.464, M -0.582
